From patent publication CN110305216A (WUXI ZHIKANG HONGYI BIOTECHNOLOGY CO LTD, dated 2019)

How the values were obtained:
人TIM-4 = target: T1, 人TIM-4 (human, UniProt Q96H15 25-314, limits assumed); experiment: ELISA, plate coated with human TIM-4
T1 sequence (looked up): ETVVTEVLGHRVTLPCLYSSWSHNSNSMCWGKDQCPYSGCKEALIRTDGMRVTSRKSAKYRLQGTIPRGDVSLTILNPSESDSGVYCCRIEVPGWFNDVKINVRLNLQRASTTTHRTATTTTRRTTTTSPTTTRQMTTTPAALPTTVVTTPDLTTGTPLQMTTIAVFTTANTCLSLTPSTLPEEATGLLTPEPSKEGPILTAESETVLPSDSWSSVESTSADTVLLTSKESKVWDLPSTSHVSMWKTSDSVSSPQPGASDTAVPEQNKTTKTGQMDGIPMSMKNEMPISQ

人TIM-1 = target: T2, 人TIM-1 (human, UniProt Q96D42 21-295, limits assumed); experiment: ELISA, plate coated with human TIM-1
T2 sequence (looked up): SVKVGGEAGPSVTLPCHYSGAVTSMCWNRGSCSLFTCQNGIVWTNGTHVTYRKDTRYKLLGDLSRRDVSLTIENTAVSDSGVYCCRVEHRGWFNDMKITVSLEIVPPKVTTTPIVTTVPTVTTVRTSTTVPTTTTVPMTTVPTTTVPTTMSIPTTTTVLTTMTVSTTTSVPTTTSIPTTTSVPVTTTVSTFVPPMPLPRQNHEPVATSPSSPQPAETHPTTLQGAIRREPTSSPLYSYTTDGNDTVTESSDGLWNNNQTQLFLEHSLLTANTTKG

B1: W3402-2.131.17-z3 (antibody, V domains shown)
VH: QVQLQESGPGLVKPSETLSLTCTVSGFSLTNYGVGWIRQPPGKGLEWIGIMTSGGSTYYNSALRARVTINRDTSKNQFSLKLSSVTAADTAVYYCTRDGTTVETLFDYWGQGTMVTVSS
VL: DIVMTQTPLSLSVTPGQPASISCRSSQSLSDSAGITYLYWYLQKPGQSPQLLIYLASNLGSGVPDRFSGSGSGTDFTLKISRVEAEDVGVYYCMQGIHVPLTFGQGTKLEIK
notes: Humanized monoclonal antibody with a kappa light chain; also called W3402-z3; 人源化变体W3402-z3
- binding result (人TIM-4): no binding
- binding result (人TIM-1): no binding
